Source: patent publication US20240124607A1 (Merck Sharp & Dohme, published 2024)

Tests used:
[1] = biological target: T1, human CEACAM5 on cells (human, UniProt P06731 35-685); assay: flow cytometry, HPAF-II cells
T1 construct: tumour cell lines with endogenous CEACAM5, or B16F10 engineered to express hCEACAM5; also called CEACAM5 on MKN-45, HPAF-II, SK-CO-1, LoVo, BxPC-3, Kato-III, LS-174T, ZR-75-30; hCEACAM5-B16F10
T1 sequence: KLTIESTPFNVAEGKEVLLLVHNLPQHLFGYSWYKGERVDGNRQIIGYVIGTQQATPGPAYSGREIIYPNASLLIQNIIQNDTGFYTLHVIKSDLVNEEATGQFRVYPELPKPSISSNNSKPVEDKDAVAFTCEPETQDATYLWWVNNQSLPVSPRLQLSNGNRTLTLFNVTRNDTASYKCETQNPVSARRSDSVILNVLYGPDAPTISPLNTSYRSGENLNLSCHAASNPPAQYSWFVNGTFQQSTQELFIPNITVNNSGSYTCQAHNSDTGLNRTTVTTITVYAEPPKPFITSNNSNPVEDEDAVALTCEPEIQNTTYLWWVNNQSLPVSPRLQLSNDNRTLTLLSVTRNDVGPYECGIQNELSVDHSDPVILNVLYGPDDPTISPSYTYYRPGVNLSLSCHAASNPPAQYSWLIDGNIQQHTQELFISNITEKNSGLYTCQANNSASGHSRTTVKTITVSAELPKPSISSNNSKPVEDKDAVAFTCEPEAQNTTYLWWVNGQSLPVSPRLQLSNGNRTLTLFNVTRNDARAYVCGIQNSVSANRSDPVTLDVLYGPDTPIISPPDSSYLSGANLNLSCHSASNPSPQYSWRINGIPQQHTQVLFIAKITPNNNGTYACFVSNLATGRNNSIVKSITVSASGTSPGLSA
Method: MKN-45 and HPAF-II human cancer cell lines were diluted into FACS buffer and 100,000 cells of each cell type were seeded per well in duplicate into 96-well plates for FACS staining. The cells were washed with PBS, incubated in a 1:2000 dilution of live/dead dye in PBS for 15 minutes, and then washed with FACS buffer. AB0264, AB0411, AB0466, and AB0621 were diluted into FACS buffer, and 50 μl of each diluted TriNKET was added to the cells. After incubation on ice for 30-120 minutes, the cells were washed with FACS buffer. Anti-human IgG-Fc secondary antibody was diluted into FACS buffer, and 50 μl was added per well for detection of the bound TriNKETs. The cells were incubated for 30-60 minutes on ice and then washed with FACS buffer. 50 μl of fixation buffer was added to each well and the cells were incubated for 10 minutes at room temperature. The cells were washed with FACS buffer and resuspended in FACS buffer for analysis with ThermoFisher Attune NxT, BD FACS Celesta SN #H66034400085, or BD FACS Celesta SN #H66034400160.
Cells of interest were identified using FSC vs. SSC plot and an appropriately shaped gate was drawn around the cells. Within the gated cells, doublet cells were removed by viewing FSC-H vs. FSC-A plot. Within the single cell population, live cells were gated. Within the live gate, the median fluorescence intensity (MFI) of each sample and the secondary-only control was calculated. Fold-over-background (FOB) was calculated as the ratio of test article MFI over secondary-only background MFI. Data were fit to a four-parameter non-linear regression curve using GraphPad Prism 7.0.

[2] = biological target: T2, Human CEACAM5 (E398) (human, UniProt P06731 35-685, limits assumed); assay: SPR, anti-hFc capture, 37C, pH 7.4
T2 construct: also called hCEACAM5
T2 sequence: T1 sequence
Method: To determine the affinity and cross-reactivity of CEACAM5 TriNKET molecules, AB0411, AB0466, or AB0621 TriNKETs were captured using an anti-human Fc capture antibody (Cytiva, #BR100839) immobilized onto a Biacore CM5 standard surface sensor chip following manufacturer instructions. Human or cynomolgus CEACAM5 were titrated over captured AB0411, AB0466, and AB0621 as 2-fold serial dilutions starting from 300 nM. Association was monitored for 300 sec and dissociation was monitored for 600 sec. The assay was run at 37° C. at pH 7.4 and 6.0. The surface of the CM5 chip was regenerated with 10 mM glycine pH 1.5 for 20 sec at 100 μL/min.

[3] = biological target: T3, human CEACAM8 on Ba/F3 cells (human, UniProt P31997 35-320); assay: flow cytometry on Ba/F3 cells expressing human CEACAM8, fold over background (FOB), 5-fold dilutions from 1600 nM
T3 construct: whole, on cells
T3 sequence (looked up): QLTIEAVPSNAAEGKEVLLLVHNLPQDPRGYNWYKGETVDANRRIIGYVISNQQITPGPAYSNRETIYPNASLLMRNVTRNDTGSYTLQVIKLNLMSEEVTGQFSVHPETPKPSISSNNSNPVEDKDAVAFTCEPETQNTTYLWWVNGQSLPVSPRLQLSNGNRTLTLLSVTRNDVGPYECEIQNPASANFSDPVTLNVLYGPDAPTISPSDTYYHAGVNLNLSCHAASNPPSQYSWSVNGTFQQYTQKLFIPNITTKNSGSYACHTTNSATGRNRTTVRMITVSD
Method: To examine the binding specificity of the TriNKETs to CEACAM5 compared to other CEACAM family members, Ba/F3 cells were engineered to express one of human CEACAM1, CEACAM6, CEACAM8, or cynomolgus CEACAM5. CEACAM5 TriNKETs were evaluated by flow cytometry starting at 1600 nM followed by 7 5-fold dilutions.

[4] = biological target: T4, human CD16A (FcγRIIIA) V158 (human, UniProt P08637 17-208, limits assumed, biotinylated in the assay of Table 21); assay: SPR, biotin-CD16A on SA chip, 25C, pH 6.0
T4 construct: also called CD16A (V158/V176)
Method: (§1) Binding to human and cynomolgus CD16A was assessed using biotinylated CD16A captured on a streptavidin (SA) sensor chip (Cytiva, #BR100531). AB0411, AB0466, or AB0621 was titrated from 1500 nM at 25° C. at 30 μL/min for 150 sec association followed by 300 sec dissociation. The surface of the chip was regenerated with 2 mM sodium hydroxide for 5 sec at 30 μL/min. Running buffer was HBS-EP+. […] The V158 isoform bound ˜2- to 3-fold tighter than the F158 isoform as expected.

[5] = biological target: T5, Cyno FcγRIIIA (cynomolgus monkey, UniProt Q8SPW2 17-208, limits assumed, biotinylated); assay: SPR, biotin-CD16A on SA chip, 25C, pH 6.0
T5 construct: also called cynomolgus CD16A
Method: as §1

T4 sequence (P08637 17-208 F176V limits assumed): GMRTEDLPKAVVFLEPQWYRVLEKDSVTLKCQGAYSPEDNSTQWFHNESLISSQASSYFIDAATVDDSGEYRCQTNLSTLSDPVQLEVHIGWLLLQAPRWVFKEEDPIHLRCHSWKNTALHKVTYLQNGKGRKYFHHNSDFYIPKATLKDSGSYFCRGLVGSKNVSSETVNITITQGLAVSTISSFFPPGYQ
T5 sequence (Q8SPW2 17-208 limits assumed): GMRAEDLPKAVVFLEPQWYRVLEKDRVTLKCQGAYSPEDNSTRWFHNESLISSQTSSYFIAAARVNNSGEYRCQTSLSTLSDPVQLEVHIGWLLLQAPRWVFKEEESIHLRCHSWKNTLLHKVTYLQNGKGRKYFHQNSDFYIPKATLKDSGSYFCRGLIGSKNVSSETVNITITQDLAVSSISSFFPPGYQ

B1: AB0621 F3' CEACAM5 TriNKET (bispecific antibody, human IgG1, kappa)
chain: DIVMTQSPDSLAVSLGERATINCKSSHSLLYGNFQNNYLAWYQQKPGQPPKLLIYWASTRESGVPDRFSGSGSGTDFTLTISSLQAEDVAVYYCQQYYSYPYTFGCGTKLEIKGGGGSGGGGSGGGGSGGGGSQVQLVQSGAEVKKPGASVKVSCKASGYTFTAYTIHWVRQAPGQCLEWMGYINPSSGYTEYNQKFKDRTTLTADTSISTAYMELSRLRSDDTAVYYCTREGGLLWFDYWGQGTLVTVSSGSDKTHTCPPCPAPELLGGPSVFLFPPKPKDTLMISRTPEVTCVVVDVSHEDPEVKFNWYVDGVEVHNAKTKPREEQYNSTYRVVSVLTVLHQDWLNGKEYKCKVSNKALPAPIEKTISKAKGQPREPRVYTLPPCRDELTKNQVSLTCLVKGFYPSDIAVEWESNGQPENNYKTTPPVLVSDGSFTLYSKLTVDKSRWQQGNVFSCSVMHEALHNHYTQKSLSLSPG
heavy: EVQLVESGGGLVKPGGSLRLSCAASGFTFSSYSMNWVRQAPGKGLEWVSSISSSSSYIYYADSVKGRFTISRDNAKNSLYLQMNSLRAEDTAVYYCARGAPIGAAAGWFDPWGQGTLVTVSSASTKGPSVFPLAPSSKSTSGGTAALGCLVKDYFPEPVTVSWNSGALTSGVHTFPAVLQSSGLYSLSSVVTVPSSSLGTQTYICNVNHKPSNTKVDKKVEPKSCDKTHTCPPCPAPELLGGPSVFLFPPKPKDTLMISRTPEVTCVVVDVSHEDPEVKFNWYVDGVEVHNAKTKPREEQYNSTYRVVSVLTVLHQDWLNGKEYKCKVSNKALPAPIEKTISKAKGQPREPQVCTLPPSRDELTENQVSLTCLVKGFYPSDIAVEWESNGQPENNYKTTPPVLDSDGSFFLYSWLTVDKSRWQQGNVFSCSVMHEALHNHYTQKSLSLSPG
light: DIQMTQSPSSVSASVGDRVTITCRASQGISSWLAWYQQKPGKAPKLLIYAASSLQSGVPSRFSGSGSGTDFTLTISSLQPEDFATYYCQQGVSFPRTFGGGTKVEIKRTVAAPSVFIFPPSDEQLKSGTASVVCLLNNFYPREAKVQWKVDNALQSGNSQESVTEQDSKDSTYSLSSTLTLSKADYEKHKVYACEVTHQGLSSPVTKSFNRGEC
[1]
  EC50: 18.1 nM
  Max FOB: 24.9 fold over background
[2]
  Kd: 17 nM
  kon: 100000 M⁻¹ s⁻¹
[3]
  binding result: no binding (tested: 1600 nM)
[4]
  Kd: 58 nM
  koff: 0.04 s⁻¹
  kon: 690000 M⁻¹ s⁻¹
[5]
  Kd: 25 nM
